Experimental findings from patent publication US6572751B1, “Method and apparatus for continuous flow isoelectric focusing for purifying biological substances” (priority 1997, dated 2003) are described below.

The nature of this test: Amylolytic activity of purified α-amylase. To be noted: middle outflow after second contifocusing run.

B1: α-amylase: enzyme purified from Bacillus subtilis strain A-200 culture supernatant (protein, UniProt P00691 42-659, looked up)
Alpha-amylase: LTAPSIKSGTILHAWNWSFNTLKHNMKDIHDAGYTAIQTSPINQVKEGNQGDKSMSNWYWLYQPTSYQIGNRYLGTEQEFKEMCAAAEEYGIKVIVDAVINHTTSDYAAISNEVKSIPNWTHGNTQIKNWSDRWDVTQNSLLGLYDWNTQNTQVQSYLKRFLDRALNDGADGFRFDAAKHIELPDDGSYGSQFWPNITNTSAEFQYGEILQDSASRDAAYANYMDVTASNYGHSIRSALKNRNLGVSNISHYASDVSADKLVTWVESHDTYANDDEESTWMSDDDIRLGWAVIASRSGSTPLFFSRPEGGGNGVRFPGKSQIGDRGSALFEDQAITAVNRFHNVMAGQPEELSNPNGNNQIFMNQRGSHGVVLANAGSSSVSINTATKLPDGRYDNKAGAGSFQVNDGKLTGTINARSVAVLYPDDIAKAPHVFLENYKTGVTHSFNDQLTITLRADANTTKAVYQINNGPETAFKDGDQFTIGKGDPFGKTYTIMLKGTNSDGVTRTEKYSFVKRDPASAKTIGYQNPNHWSQVNAYIYKHDGSRVIELTGSWPGKPMTKNADGIYTLTLPADTDTTNAKVIFNNGSAQVPGQNQPGFDYVLNGLYNDSGLSGSLPH
B1 showed an amylolytic activity of 200 U/g.
